Assay [1] has as its target T1, human GLP-1 receptor (human, UniProt P43220 24-463). Briefly: cell-based or functional assay.
Assay [2] deals with T1, human GLP-1 receptor. Kind of assay: cell-based or functional assay. The source holds these as a separate data set.

T1 sequence (P43220 24-463): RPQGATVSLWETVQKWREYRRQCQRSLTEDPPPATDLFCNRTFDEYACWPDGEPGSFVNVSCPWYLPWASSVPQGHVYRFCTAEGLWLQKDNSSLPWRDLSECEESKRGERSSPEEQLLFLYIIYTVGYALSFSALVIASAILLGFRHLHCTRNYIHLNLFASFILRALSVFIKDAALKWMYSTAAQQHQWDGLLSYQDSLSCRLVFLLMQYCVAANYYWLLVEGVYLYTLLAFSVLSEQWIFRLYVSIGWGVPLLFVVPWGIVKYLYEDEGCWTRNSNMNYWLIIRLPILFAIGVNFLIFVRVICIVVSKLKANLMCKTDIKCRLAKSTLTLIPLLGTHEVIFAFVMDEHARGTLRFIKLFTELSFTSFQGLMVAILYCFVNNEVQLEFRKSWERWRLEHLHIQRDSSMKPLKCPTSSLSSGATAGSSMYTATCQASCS

B1: DMS7148 (other)
chain: HGEGTFTSDVSSYLEGQAAKEFIADLVEGRGPSSDIQMTQSPSSLSASVGDRVTITCRASQWIGSQLSWYQQKPGKAPKLLIMWRSSLQSGVPSRFSGSGSGTDFTLTISSLQPEDFATYYCAQGAALPRTFGQGTKVEIKR
Regarding B1, the “pEC50 (6CRE luciferase reporter, CHO 6CRE GLP1R cells)” value in the assay with human GLP-1 receptor [1] came out at 9.45.

B2: DMS7161 (other)
chain: HGEGTFTSDVSSYLEGQAAKEFIADLVEGRGPSSDIQMTQSPSSLSASVGDRVTITCRASQWIGSQLSWYQQKPGKAPKLLIMWRSSLQSGVPSRFSGSGSGTDFTLTISSLQPEDFATYYCAQGLRHPKTFGQGTKVEIKR
Take B2: in the assay with human GLP-1 receptor [2], the “EC50 (M) (luciferase reporter, CHO 6CRE GLP1R cells); preparation DMS7161 A” value stood at 3.4e-09 M; the “EC50 (M) (luciferase reporter, CHO 6CRE GLP1R cells); preparation DMS7161 B” value stood at 1.6e-09 M; the “pEC50 (luciferase reporter, CHO 6CRE GLP1R cells); preparation DMS7161 A” value was 8.47; the “pEC50 (luciferase reporter, CHO 6CRE GLP1R cells); preparation DMS7161 B” value amounted to 8.79.

For the origin of these results see US20110229458A1 (published 2011).
